± gives the uncertainty stated by the source.
Test: protein stability index of a GFP-peptide fusion (yeast GPS) (PSI 1-4); higher = more stable; sorted into four equal gates, so the index is relative within each strain
Outline: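 Tiled 17-residue yeast protein peptides were fused downstream of GFP in a plasmid that also expresses Cherry, and the pooled library was carried in yeast. Mid-log cultures in leucine-free medium were sorted into four equal gates by GFP/Cherry fluorescence ratio, and plasmids from each gate were PCR-amplified and Illumina-sequenced, with reads assigned to strains by barcodes. The protein stability index for each peptide was each gate's read frequency times its gate number, summed.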

Sequence | protein stability index (doa10∆) | protein stability index (pdr5∆) | protein stability index (san1∆) | protein stability index (ubr1∆)
QREAAAEYAQLLAKRLS [RPS6A] | 1.78 ± 0.059 | 1.6 ± 0.055 | 1.7 ± 0.11 | 2.11 ± 0.046
PLKLSGEGPFTVKFKHM [YMR129W/POM152] | 2.92 ± 0.064 | 2.93 ± 0.064 | 2.75 ± 0.086 | 2.72 ± 0.076
HDEKLSDELHNQSTIYE [LIN1] | 2.91 ± 0.11 | 2.74 ± 0.12 | 2.73 ± 0.16 | 2.77 ± 0.097
IPNIPPNINTWQQVTAL [GAL11] | 2.96 ± 0.14 | 3.15 ± 0.1 | 2.9 ± 0.11 | 2.54 ± 0.12
KVSSLKMFIQRILAMCV [YCS4] | 2.64 ± 0.069 | 2.48 ± 0.061 | 2.23 ± 0.063 | 2.88 ± 0.057
SAGFETDLRLSTNGLGM [SNU114] | 3.43 ± 0.1 | 3.46 ± 0.12 | 2.98 ± 0.22 | 3.13 ± 0.22
ETFSTSAHQSPIMQTQM [SNF2] | 3.17 ± 0.077 | 2.8 ± 0.072 | 3.28 ± 0.062 | 3.15 ± 0.04
NLNELESQLQMDRTSLR [SMC3] | 2.57 ± 0.15 | 2.59 ± 0.16 | 2.5 ± 0.22 | –
AMQYVCGDSIICNTLNI [SMC1] | 1.57 ± 0.072 | 1.65 ± 0.065 | 1.5 ± 0.1 | 1.51 ± 0.071
AVFYTPKELGGLGMISA [PRP8] | 3.43 ± 0.13 | 2.33 ± 0.13 | 2.4 ± 0.1 | 2.29 ± 0.24
ARDLLTRDEKDPKRLFE [RPS9A] | 3.37 ± 0.19 | 3.6 ± 0.11 | 3.14 ± 0.14 | 3.62 ± 0.083
YVSALKRINKFLDSVHK [POP7] | 1.91 ± 0.049 | 1.56 ± 0.037 | 2 ± 0.068 | 1.8 ± 0.034
RAASVGSLKLIELLCGL [NAS6] | 2.18 ± 0.075 | 2.13 ± 0.11 | 1.94 ± 0.11 | 1.83 ± 0.063
GTSTTHGSISPQEESVS [SIR3] | 2.14 ± 0.043 | 2.56 ± 0.045 | 2.43 ± 0.053 | 2.48 ± 0.033
RAIDSLIQKGYLQRGDD [CDC53] | 1.68 ± 0.066 | 1.94 ± 0.069 | 2.17 ± 0.12 | 2.06 ± 0.077
SHDASRSLASFEQTAFS [SIR4] | 2.86 ± 0.065 | 2.67 ± 0.049 | 2.81 ± 0.053 | 2.67 ± 0.067
TEIISTLSNGLIASHYG [BRR2] | 2.55 ± 0.076 | 2.79 ± 0.096 | 2.42 ± 0.1 | 2.33 ± 0.062
EFIAHRLGLIPLQSMDI [RPB3] | 2.69 ± 0.13 | 2.04 ± 0.17 | 1.92 ± 0.23 | –
LGVIHKGNLLEGKKVMA [RPN2] | 1.37 ± 0.07 | 1.33 ± 0.048 | 1.17 ± 0.11 | 1.22 ± 0.057
ERLMTWKFKSLIEILRL [RRI2] | 2.11 ± 0.054 | 2.01 ± 0.044 | 1.68 ± 0.088 | 2.31 ± 0.032
LNVTPSKRPQLGEIPNP [SIR4] | 2.54 ± 0.072 | 2.83 ± 0.066 | 2.66 ± 0.075 | 2.88 ± 0.063
KPGQNNRQQKKRRFDPS [RRP6] | 2.78 ± 0.089 | 2.99 ± 0.11 | 3.21 ± 0.13 | 2.56 ± 0.08

Sequence | protein stability index (doa10∆) | protein stability index (pdr5∆) | protein stability index (san1∆) | protein stability index (ubr1∆)
TEHVRQNAKLLANLIRD [RRP6] | 1.54 ± 0.046 | 1.93 ± 0.08 | 2.39 ± 0.14 | 1.62 ± 0.086
ILEDTATMSVFLQRIDF [RRI2] | 2.78 ± 0.059 | 2.53 ± 0.05 | 2.76 ± 0.056 | 2.59 ± 0.042
PEWMILTCLPVPPPPVR [RPO21] | – | 3.52 ± 0.17 | – | –
VTAKLLGFTPGELRSYL [FAS1] | 2.91 ± 0.073 | 2.97 ± 0.11 | 2.89 ± 0.1 | 3.1 ± 0.093
KRGVKGVEYRLRLRISR [RPL31A] | 1.64 ± 0.12 | 1.36 ± 0.12 | – | 1.78 ± 0.19
IKIFELKLPADATTWRY [IRR1] | 2.03 ± 0.056 | 2.06 ± 0.049 | 2.26 ± 0.08 | 2.39 ± 0.046
LSQQQKDAQKKDIEKLT [YIL149C/MLP2] | 2.79 ± 0.079 | 2.95 ± 0.069 | 2.78 ± 0.064 | 2.97 ± 0.075
STVAKFLARVIKEKFDE [IRR1] | 2.86 ± 0.1 | 2.33 ± 0.082 | 3.36 ± 0.22 | 2.16 ± 0.09
TEVSRKSMKYVKKILPL [ECM29] | 2.34 ± 0.28 | 1.5 ± 0.24 | – | 1.18 ± 0.16
YHNKHMMCDFGTGNNNK [DIB1] | 2.7 ± 0.053 | 2.86 ± 0.055 | 2.73 ± 0.049 | 2.98 ± 0.041
LEYMNTARINNRRLFKK [RRI2] | 2.5 ± 0.08 | 2.21 ± 0.072 | 2.3 ± 0.083 | 2.5 ± 0.075
NKIRNLELPLCPYCYKK [SIR2] | 2.52 ± 0.055 | 1.95 ± 0.062 | 1.97 ± 0.069 | 1.98 ± 0.074
SAIRKCVRVQLIKNGKK [RPS23A] | 2.91 ± 0.081 | 3.02 ± 0.069 | 2.45 ± 0.12 | 3.19 ± 0.095
TSFDIKREGRNELQEER [POP6] | 3.46 ± 0.12 | 3.02 ± 0.15 | 3.73 ± 0.11 | 3.27 ± 0.07
TEKEPVPAVVDDPLENM [SNF6] | 2.85 ± 0.073 | 3.12 ± 0.08 | 2.69 ± 0.082 | 2.88 ± 0.068
VPRKFKHFIQGGSFGNR [RPL7A] | 3.36 ± 0.13 | 2.85 ± 0.1 | 3.13 ± 0.12 | 2.17 ± 0.055
IVNGQTFSYVDSSLQPE [YMR129W/POM152] | 2.47 ± 0.05 | 2.67 ± 0.059 | 2.62 ± 0.052 | 2.06 ± 0.042
IESQNLDLIPHSSSVFK [SRB4] | 2.46 ± 0.059 | 2.9 ± 0.053 | 2.55 ± 0.067 | 2.73 ± 0.038
MNFISKEEFIMMVNISV [PCI8] | 1.41 ± 0.059 | 1.25 ± 0.046 | 1.32 ± 0.16 | 1.37 ± 0.063
NPIHVSRHFASYANLPG [FAS1] | 2.23 ± 0.059 | 2.36 ± 0.05 | 1.94 ± 0.081 | 2.11 ± 0.038
IVVMDCFNLPVVGTETR [RRI1] | 2.24 ± 0.13 | 2.66 ± 0.12 | 2.29 ± 0.17 | –
